Test results: the supplement of paper PMC12042874
± gives the uncertainty stated by the source.

Test: amyloid nucleation score (Sup35N fusion, yeast selection) (log enrichment); library NNK1; higher = more nucleation; inactive = no reads after selection
Outline: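 The nucleation score equals the log enrichment of output over input reads from DiMSum, centred on the mode score of non-aggregating sequences. It was computed only for sequences with 100 or more input reads. The reads came from Illumina sequencing of plasmid inserts from psi-negative yeast expressing Sup35N fused to peptides of 20 random codons, induced with 100 μM copper sulfate for 24 hours and grown 7 days at 30°C without adenine and uracil.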

Row | Substance | amyloid nucleation score
1 | HLLRRHYNCLSHLGWCNGLF | -0.024 ± 0.29
2 | HLNLIVTRFASIWVAAFMCR | -0.282 ± 0.77
3 | HLPFYLCF | 1.57 ± 0.43
4 | HLPTKLPSRIRYRCYDFHVI | -0.546 ± 0.97
5 | HLSSTVITLVPCRLEMYLEG | 0.55 ± 0.25
6 | HLYGVR | 0.267 ± 0.84
7 | HMITSLRWSSLRSWTQVWLR | inactive
8 | HMRGLG | 6.77 ± 0.083
9 | HMSDNGLSSMKRVYVVYPTT | -0.049 ± 0.23
10 | HMSWMYEWMNVTCKVNMCR | 2.06 ± 0.24
11 | HNCCDEVCGSNSGLFFRFMN | 0.979 ± 0.65
12 | HNYSDFFNESWHNGLIYSY | -0.571 ± 1
13 | HPMITRFLAD | 0.413 ± 1.4
14 | HQINRWRLLPRGGTFKDGHN | 0.703 ± 0.54
15 | HQLGQYHTACHAPSARCTPL | -0.221 ± 0.52
16 | HQYVMFESLTYICLPLRDRL | 4.98 ± 0.1
17 | HRCQSSSRRPMNGFGTCQRS | 0.321 ± 0.34
18 | HRGLSLLAGVSALVWKSQMT | -0.4 ± 1.1
19 | HRGVLQLR | 0.764 ± 0.84
20 | HRITSFVYYFGLSSEFYIYP | 0.009 ± 1.1
21 | HRIWRLLALNT | -0.583 ± 0.54
22 | HRNSCVPPGVAGIVTVCL | 0.363 ± 0.6
23 | HRYRGRNLLILCRNDDWCDF | 1.26 ± 0.47
24 | HSASQLPYYQY | 0.498 ± 0.97
25 | HSCSVPLWIWRFSVRAKGCK | 0.562 ± 0.57
26 | HSDVHNCFLLCRCTGYCLYS | 3.96 ± 0.16

Row | Substance | amyloid nucleation score
27 | HSGTSCWVGIIDV | -0.248 ± 0.28
28 | HSHHGSSV | 1.08 ± 0.76
29 | HSIERTWPVRRPKCESKLKF | -0.91 ± 1.3
30 | HSRRCYNESS | 1.7 ± 0.55
31 | HSSDMCLSGLM | 0.002 ± 1.4
32 | HSWGRKVF | -1.1 ± 0.47
33 | HTISENRSGLVTP | -0.966 ± 0.9
34 | HTTFKGKSEAATRIIATQAR | -0.011 ± 0.41
35 | HTVKAK | -2.11 ± 1.1
36 | HTYDGHSVSGCTGHVMFLSS | -0.021 ± 0.41
37 | HVFSQ | -0.756 ± 2.4
38 | HVHRIN | -0.717 ± 1.1
39 | HVIQKSN | -0.988 ± 0.5
40 | HVLDRQLSPMDSNSYGCVAT | 0.208 ± 0.28
41 | HVLMIRWLWWGISRACKNSR | -0.193 ± 1.6
42 | HVVVRRIY | -0.065 ± 0.34
43 | HVWSILAISVYNAHRGSRV | 7.134 ± 0.051
44 | HVYCLRWRYC | -0.318 ± 0.35
45 | HVYLTWTGLVGLKWCSGCSA | -0.856 ± 2.4
46 | HVYVWKRTVPGIGRDQHNSR | 1.81 ± 0.6
47 | HWCLMGLCKLFSSARPPLKK | 0.085 ± 0.8
48 | HWFESDFAI | inactive
49 | HWLFWCQR | inactive
50 | HWLQY | 0.156 ± 0.43
51 | HWVLDWQAQVRMPRNSVSGL | inactive
52 | HYDLWCLMFFLVSMMSVNCH | 0.972 ± 0.54

Row | Substance | amyloid nucleation score
53 | HYIIIRFLNAELTLCHLRMI | -1.61 ± 1.7
54 | HYRCVRGYSFFVLLCDSRIQ | -0.497 ± 0.93
55 | HYRFCYCHSTKS | 1.76 ± 0.42
56 | HYTLIGIY | inactive
57 | IACCVRSVECGRGCQLRGLA | 0.217 ± 0.83
58 | IAILIYASAFKSSSGCGVKS | 0.177 ± 0.64
59 | IALLNGNNLSPT | 9.502 ± 0.052
60 | IAMSIKWRRW | 2.8 ± 0.093
61 | IAPMSRRFEGMACSFTDEEA | inactive
62 | IAPSNFRGWMAHYKV | 0.213 ± 0.57
63 | IASECWET | -0.391 ± 0.52
64 | IASVQLS | 1.16 ± 0.53
65 | IAVFRYFDSYRPFTRVSVLF | inactive
66 | IAVPRRQPINLSN | 0.668 ± 0.56
67 | ICCVVESLCYSVMFKHIS | 4.55 ± 0.079
68 | ICFRIIVAIVQRV | 1.14 ± 0.38
69 | ICNFVSLFNWK | -0.025 ± 0.79
70 | ICNSLMEDDMGASEVMC | 0.734 ± 0.57
71 | ICQYPPLEVLARYGQIQDIM | 0.207 ± 0.3
72 | ICSYTSIVYLFWDDLSLSTL | 1.7 ± 0.64
73 | ICYVNVL | -1.18 ± 1.7
74 | IDLGFLNKCLCRNSCCVGEA | 1.81 ± 0.17
75 | IDMTEMKIRWV | -0.208 ± 0.27
76 | IDSFCKCDISCVIFSWIVVV | 0.024 ± 0.25
77 | IDSGRAKRLSHMIWISVRHG | -1.93 ± 2.7
78 | IDWKLKLMFMCFESKSLVNW | -0.655 ± 0.32

Row | Substance | amyloid nucleation score
79 | IECMAMCHSVRSCCGSIYDC | -0.422 ± 0.38
80 | IEVGIVGNLS | inactive
81 | IFAQKGYTSRFSILM | -0.565 ± 0.58
82 | IFFFKEYCFMQVIRGFVCN | -0.265 ± 1.1
83 | IFHSAVQTNLSGGCRAGVWL | 0.254 ± 0.83
84 | IFILIRYWHCITSSPDVGFG | -0.246 ± 0.61
85 | IFLIVMFPLFNDCLHCYKTC | 1.3 ± 0.13
86 | IFLPYI | -0.383 ± 1.4
87 | IFPPFMDFRNCPVMLNC | 0.761 ± 0.2
88 | IFSSGYAKAFVHLVCSVAQL | -0.458 ± 0.45
89 | IFTTSNQSEGRGVPAGNPNL | inactive
90 | IFVYCEFNKNRIPALASWVG | 0.93 ± 0.43
91 | IFWTFRGITMPSC | 0.702 ± 0.55
92 | IGESDNG | -0.63 ± 0.56
93 | IGGLSGEYWFHLLSSSVLFF | inactive
94 | IGHGTHG | 0.282 ± 0.49
95 | IGIPVLGMNINYCFLR | 0.931 ± 0.29
96 | IGLMALLGLTRDR | 2.17 ± 0.12
97 | IGPLYRFCMLNMRFGAGSLN | 0.428 ± 0.84
98 | IGTGLLS | 0.451 ± 0.62
99 | IGVKVTY | -0.796 ± 0.53
100 | IHKDFSLMHILRIHLVGVFS | inactive
101 | IHKMCRAD | 0.12 ± 0.55
102 | IHNSVDKTYLCSVLNPRGYS | inactive
103 | IHSQHKHVIMRA | -0.061 ± 0.57
104 | IHVSFKDYLTVSTIMMWTIV | -0.077 ± 0.66

Row | Substance | amyloid nucleation score
105 | IIEIRLNLGAVANLSTYGVM | 0.327 ± 0.39
106 | IIEWFSWWARMIFDDFPYYE | inactive
107 | IIFCMVFDSVSDDVLYITSK | -0.941 ± 0.99
108 | IIGLVWSVL | 0.993 ± 0.58
109 | IIICFRTWLTCSFCFDSAPC | 0.227 ± 0.49
110 | IIISTGVRFTEDSCGFAWAE | -0.009 ± 0.66
111 | IILIDMVCPPCRPRFRSYSC | -0.153 ± 0.69
112 | IILSAHVLSRTFLAFVSQKE | 0.146 ± 0.77
113 | IILWAWCKTGGDGIPSGVVL | 0.342 ± 0.23
114 | IINERSANLYDFVVIDRSWL | -1.04 ± 0.69
115 | IISAFISESTYDCGFASWVS | -0.187 ± 0.42
116 | IISDDNSGMWWVMFLV | 0.065 ± 0.61
117 | IISGIIIRYIDYNYRD | inactive
118 | IKAELAKCLNTACVKFFCDV | 0.715 ± 0.37
119 | IKAWWMNHGRYHCLTLRVCL | 0.713 ± 0.38
120 | IKDNITGKSSYGM | 0.418 ± 0.32
121 | IKIRAICVCMFDSQEGLGET | 0.601 ± 0.43
122 | IKWTLLDG | 0.871 ± 0.47
123 | IKYLSYDVNPPLWFVYNFSF | 6.29 ± 0.084
124 | ILKALF | 1.53 ± 0.8
125 | ILKRSCEVVL | -0.243 ± 0.47
126 | ILLICYGSCAPNNMVSASTD | -0.959 ± 0.84
127 | ILMHSIAVFTRGIGRIRLAS | 0.913 ± 0.68
128 | ILPAYAQ | 0.134 ± 1.1
129 | ILPCFDANIIQDP | -0.064 ± 0.81
130 | ILSFSVRLPVHDSSLCFGSG | 0.316 ± 0.67

Row | Substance | amyloid nucleation score
131 | ILYGRIR | inactive
132 | IMCIHSFCFCLRPSHLIVGG | 0.774 ± 0.41
133 | IMEGR | 5.73 ± 0.1
134 | IMVCN | -0.197 ± 0.42
135 | INDYMLYGVLAYILGHGTVQ | 0.622 ± 0.49
136 | INFCFKCWNKVWLDNFFLSS | -0.67 ± 0.22
137 | INLLVPFQNESVLELNATEW | 0.772 ± 0.51
138 | INLMGSPS | -0.708 ± 0.28
139 | INRCGGVPARLLLCKLGYLG | 0.298 ± 0.5
140 | INRFEG | -0.385 ± 0.68
141 | INTFARRAVVSSLSWSLACH | 0.317 ± 0.64
142 | INTKRVRSRHSTR | -0.502 ± 0.79
143 | INVNRG | 0.239 ± 0.56
144 | IPKVIGWFTVVTTGVVVNIS | -1.59 ± 2.7
145 | IPNSRLLNI | 0.996 ± 0.57
146 | IPTFSKIGKLFYVCGAEFSD | -0.355 ± 0.88
147 | IPVVVV | 0.014 ± 0.24
148 | IPWPRTPSSSGMHAL | 4.81 ± 0.074
149 | IQGNFRDLGRDKHDTEVWHP | 0.858 ± 0.45
150 | IQSIIW | -0.418 ± 0.5
151 | IRCVERGVWSCTFHIQGNCF | -0.84 ± 0.91
152 | IRGTFRVSYGNGKCNSVMNY | 0.201 ± 0.42
153 | IRGTLT | -1.42 ± 2.1
154 | IRHNTRRSSIRTET | 0.086 ± 0.49
155 | IRMFSTLLACNLVIGGCLAN | 6.482 ± 0.053
156 | IRRRRTNIWGWAIYRAISIY | 0.345 ± 0.4

Row | Substance | amyloid nucleation score
157 | IRSEDKITFPGLCKSRLELV | 0.845 ± 0.67
158 | IRSLKNPF | 0.275 ± 1.2
159 | IRTPYIWLTCRGPYEVRRWD | -0.247 ± 0.69
160 | IRVINYFVWSWTLTIIADFI | -1.25 ± 2.4
161 | ISALGF | 1.98 ± 0.72
162 | ISCVICAMIILRWHV | 0.045 ± 0.9
163 | ISEKRISMCGIRNKYIWGHG | -0.953 ± 1.1
164 | ISFPSSDYGGGSAPVEGWLG | 0.47 ± 1.2
165 | ISGNRSKVWNDGWIRPRYLC | 0.679 ± 0.84
166 | ISINLRLVRHRGWGNISCWR | 2.2 ± 0.33
167 | ISLAVWGFSILLRIADCSMI | 0.123 ± 1.2
168 | ISLYVSNYRAYDKSPLGEDW | 0.398 ± 0.74
169 | ISNGIYISKEGFHEWSNRH | 4.18 ± 0.064
170 | ISQVYGDNTDFVLLVSSDNV | 0.544 ± 0.33
171 | ISRPSSSGRLHVVMTSSNAR | 0.421 ± 0.39
172 | ISTDPWAAHYNRTHIQ | 1.98 ± 0.15
173 | ISTPIDDPKCLGSLVYFHQM | -0.693 ± 0.53
174 | ISVGCF | 0.201 ± 0.49
175 | ISWSASLDIDINCQCRGLWG | 3.35 ± 0.1
176 | ISYMHKLCLFSFYLDHKLTL | -1.49 ± 1.4
